19 sequences from the DeepSol protein solubility set can be followed below.

This data set in a line: soluble on expression in E. coli; label from the status in PepcDB or PDB records.
For the sequence “MAHHHHHHMASSEEEKRVAYCKQHNVHHLFELLATKLLLDRPENPFEYLREMLSKVEESEKSKQSYDPTVLSPPVNGAVEPLKKITLGTFGLDNAGKTTLISALGGQIEVNTTPTVGFTPTKFQTEKYDICIFDLGGAANFRGIWVHYFHDCHGLMFVIDSAADDAVVRESLNVLRDLSQHRYIKGKPILVLANKKDLENARGTKVIPNGFLDKLFGRNTAYRVVASCGIEEDPALEEGVEWLLSVVDKLHDTLEARVNCDTEEVKMEAKRKAAERLAALKTAS”, the “soluble on expression in E. coli” value was “not soluble”.

Turning to “MAHHHHHHMLRRTVARFMASEAIGPAHPDILWGFMDGRYAGPGWVSWIKQLPVETLTMQGGTSMTNMNDRAGVILDPEDPRHSMALIQWGPMNHYDGAFMQLSYGDYGEIKKGSRLMQVLYDHYLEPFSMNRVCAQLYFYQKVPNNYHASVEASAEYIGQTASLVGQVVVGMGSVIMEGVTVKGDTNCVYIAEGVQVMENTCIVSDAPTDLLAYQRHEAINPYQQWDGMDGVCRIMQNTMIEPNCFLDSCSIGPFNRIGHNTKILKGVTTGTMVHILPGSVVTADTRIGDGELWGGAPAVKLGKVSKFEWKRPYYASLLHKECVVESYRNMSRYGDQVVYFQDEMGKLDTLMLQFESDITPSVKAKMKEFVQGREPFHHMLTRITQGWSPANRPDDKNYNLCPPLPAVKLFAEHNNDSSDSSLHGTYMNITNIFNDFRW”, the “soluble on expression in E. coli” value is given as “not soluble”.

In the case of “GPGSMIHPMAVDRLLPSQEAAELIELTREIADKVLDPIVDRHEKDETYPEGVFEQLGAAGLLSLPQPEEWGGGGQPYEVYLQVLEEIAARWASVAVAVSVHSLSSHPLLVFGTEEQKKRWLPGMLSGEQIGAYSLSEPQAGSDAAALRCAATPTDGGYVINGSKSWITHGGKADFYTLFARTGEGSRGVSCFLVPADQPGLSFGKPEEKMGLHAVPTTSAFYDNARIDADRRIGEEGQGLQIAFSALDSGRLGIAAVATGLAQAALDEAVAYANERTAFGRKIIDHQGLGFLLADMAAAVATARATYLDAARRRDQGRPYSQQASIAKLTATDAAMKVTTDAVQVFGGVGYTRDYRVERYMREAKIMQIFEGTNQIQRLVIARGLTR”, the “soluble on expression in E. coli” value is listed as “soluble”.

For the sequence “MIKLVAFDLDGTIGNTLPMCIQAFKKATQPYIGHELSDEEMVHTFGLNEEGMIGCVVDEPYRQQALNDFYVIYKELHQEMCPTPFEGIRELIALLKQKGIIVALITGKGINSCDITLKQFNMKDSFAKVITGNAERNIKSEALKELLHDYHLAANEIVYVGDALSDITECRKANVMCLSAAWSIPQNEVTALENSNPKNVFYSISSLFKYL”, the “soluble on expression in E. coli” value was “not soluble”.

For the sequence “MHHHHHHSSGVDLGTENLYFQSMAWVIDKYGKNEVLRFTQNMMMPIIHYPNEVIVKVHAASVNPIDVNMRSGYGATALNMKRDPLHVKIKGEEFPLTLGRDVSGVVMECGLDVKYFKPGDEVWAAVPPWKQGTLSEFVVVSGNEVSHKPKSLTHTQAASLPYVALTAWSAINKVGGLNDKNCTGKRVLILGASGGVGTFAIQVMKAWDAHVTAVCSQDASELVRKLGADDVIDYKSGSVEEQLKSLKPFDFILDNVGGSTETWAPDFLKKWSGATYVTLVTPFLLNMDRLGIADGMLQTGVTVGSKALKHFWKGVHYRWAFFMASGPCLDDIAELVDAGKIRPVIEQTFPFSKVPEAFLKVERGHARGKTVINVV”, the “soluble on expression in E. coli” value was “soluble”.

In the case of “MQMNTQREQLIHIWLTSVLNSDEFKIQFLAGDASFRRYARVEYKNNTYMLMDAPPEKEDCVPFVHIDEFFDRHGVRVPHILAKDLVQGFLLLEDFGDVLLSTLLNAQTVNHYYLQAFAQLIHLQSIDGQDQFPAYTFEKLMAEMHLLTEWMLPSLDIQPSSAEQDIIQQTFELLANTALNQPQVIVHRDFHSRNLMKIQGEEELGVIDFQDAVIGADTYDLISITRDAYVQWGEDQVITWFEMFYDLLPDTSKHHRDFEQFKRDADFMAIQRHIKILGIFVRLFERDGKSSYLKDLPRVMWYLLQESRPYAELKPFVEFIQYQVMPKFEQKYGGYEVVKK”, the “soluble on expression in E. coli” value was “not soluble”.

For “MGSDKIHHHHHHMKKLVATAPRVAALVEYEDRAILANEVKIRVRFGAPKHGTEVVDFRAASPFIDEDFNGEWQMFTPRPADAPRGIEFGKFQLGNMVVGDIIECGSDVTDYAVGDSVCGYGPLSETVIINAVNNYKLRKMPQGSSWKNAVCYDPAQFAMSGVRDANVRVGDFVVVVGLGAIGQIAIQLAKRAGASVVIGVDPIAHRCDIARRHGADFCLNPIGTDVGKEIKTLTGKQGADVIIETSGYADALQSALRGLAYGGTISYVAFAKPFAEGFNLGREAHFNNAKIVFSRACSEPNPDYPRWSRKRIEETCWELLMNGYLNCEDLIDPVVTFANSPESYMQYVDQHPEQSIKMGVTF”, the “soluble on expression in E. coli” value is “not soluble”.

In the case of “MPLFAGFSPRSGQGDLAEFVDIINGARRDLLFVTAFALPDSILDALLGQPHDDVLRYGLQNTASRITGFHADRTAEFAATALLNNGLEGWLKEGLKGQKGNLLVHTKAIVTDFTSEAPVIISGSHNLSVGASQSNDENFLIIRGDIDLEHHHHHH”, the “soluble on expression in E. coli” value is given as “soluble”.

As to “MAVPQLYYFNLRGFGEYIRLLFLDNGIQFEDIRFDYEGKEWQEFKKGMLLGQLPCLKVDRQEIVQTGAIMRHLGRVHEKNLARNFNFSKKYLMGKLTFLEKCGLNGSNEQEATFLDMFFEGVRDVRWKYVRSSRTLKSFWERMWKRPNLNAYLEKRKADKVRINGSDKGMN”, the “soluble on expression in E. coli” value was “not soluble”.

For “MGLCLAKRNHDADDDEPHIELAGGNVHLITTKERWDQKLSEASRDGKIVLANFSARWCGPCKQIAPYYIELSENYPSLMFLVIDVDELSDFSASWEIKATPTFFFLRDGQQVDKLVGANKPELHKKITAILDSLPPSDK”, the “soluble on expression in E. coli” value is “soluble”.

With “MSLKALNKETAPKVQRPERIIQFGEGNFLRAFVDWIIYNMNQKTDFNSSVVVVQPIDKGMVDMLNAQDDLYHVNLQGLDKGEVVNSLTMIDVISRALNPYTQNDEFMKLAEQPEMRFVISNTTEAGIAFDPTCKLEDAPASSYPGKLTQLLYHRFKTFNGDKTKGLIIFPCELIFLNGHKLKETIYQYIDLWNLGNEFKTWFEEACGVYATLVDRIVPGFPRKDIAAIKEKIQYDDNLVVQAEIFHLWVIEAPQEVAKEFPADKAGLNVLFVPSEAPYHERKVTLLNGPHTVLSPVAYLSGVNIVRDACQHEVIGKYIHKVMFDELMETLNLPKEELKKFAEDVLERFNNPFVDHAVTSIMLNSFPKYETRDLPGLKTYLERKGELPKGLVLGLAAIITYYKGGVRADGAEIVPNDAPEIMNLLKELWATGCTKKVTEGVLAAEFIWGEDLNKIPGLAAAVKADLDSIQEKGMLETVKGILEGHHHHHH”, the “soluble on expression in E. coli” value is on record as “soluble”.

As for “MKNTSRDTVVMSWWDFGHLFAVAADRPVTFDGGSQNTPRAYWIGKALTTSNETLSRGILTMLSTSGDLAYETLDNYTDDSGKTAEILTATLGLPREEARAVMTGRYGLSDKEADSVLRYSHPAKPKPFVLVLSSDMLGKAPWWTYFGTWDFKKKTGSRYGYYPSLEHHHHHH”, the “soluble on expression in E. coli” value is recorded as “soluble”.

Take “EQEMVQVFIPAQAVGAIIGKKGQHIKQLSRFASASIKIAPPETPDSKVRMVIITGPPEAQFKAQGRIYGKLKEENFFGPKEEVKLETHIRVPASAAGRVIGKGGKTVNELQNLTAAEVVVPRDQTPDENDQVIVKIIGHFYASQMAQRKIRDILAQVKQQHQK”: the “soluble on expression in E. coli” value is listed as “soluble”.

On to “MNARKAPEFPAWPQYDDAERNGLVRALEQGQWWRMGGDEVNSFEREFAAHHGAAHALAVTNGTHALELALQVMGVGPGTEVIVPAFTFISSSQAAQRLGAVTVPVDVDAATYNLDPEAVAAAVTPRTKVIMPVHMAGLMADMDALAKISADTGVPLLQDAAHAHGARWQGKRVGELDSIATFSFQNGKLMTAGEGGAVVFPDGETEKYETAFLRHSCGRPRDDRRYFHKIAGSNMRLNEFSASVLRAQLARLDEQIAVRDERWTLLSRLLGAIDGVVPQGGDVRADRNSHYMAMFRIPGLTEERRNALVDRLVEAGLPAFAAFRAIYRTDAFWELGAPDESVDAIARRCPNTDAISSDCVWLHHRVLLAGEPELHATAEIIADAVARA”, for which the “soluble on expression in E. coli” value is reported as “soluble”.

“MKTFEELCQENYSRIYKYIFSMTGSKESTEDLIQEVFIAAYEKGEAFLRHEKPAAFLYKTARNMTVTYLKNLKRQRISAMEYLSENIPQDDTDLCETLLMELDRKIDETAYTGQVIGNLNTNQHNLYRQRYVEGKSIKEIASEEGVSETAMRMRLVRLRKEIQDIVKKLKLGEK”: the “soluble on expression in E. coli” value is listed as “not soluble”.

“MAKDLLLEIGLEEMPAHVVTPSRIQLEEKVIKFLDEHHLDYETVQSFATPRRLAVKVTAIPEKQADVEEEVKGPAKKIALDAEGNWSKAAQGFVRGQGVTTEDIVFKELNGVEYVYVTKFTKGQSAKEVLTKLNDVITSLTFPVTMHWANYDFEYIRPIHWIVALLDDEVIPFKVLDVTTGQTSRGHRFLGDDVTFQHANEYEAKLKEQFVVVQPNERKQMIVDQANALAAEKNWQLALDEELLEEVTNLVEYPTAFVGSFDEKYLSVPDEVLVTSMKEHQRYFDVRNDQGLLMPHFIAVRNGDNVHLENVIKGNEKVLIARLEDAEFFYNEDKKLTIEACVEKLKNVTFHEKIGSIYEKMQRVALIAQIIGRKVGLSEDELEDLKRASEIYKFDLVTNMVGEFPELQGIMGEKYALLQGEKPAVATAIREHYLPTSSEGELPETAIGAVLALADKLDSVFSFFSVGMIPTGSNDPYALRRQTYGVIRIIEDKGWTFPLVQLQTEVDEAVNQDVEKYGVLLNEGQAEVVEFVKARLRQLLMTKNVRHDIIDAVVSAEQADLSKLFASANILKSRFEDQDFKPSMEALTRVINLAKKGQELLGDTEEGIDPSLFENKAEKELYQAVNDLSEAFATRTIAENYEALVNLRPLIDAYFNETMVMVEDEKVKQNRLKQLMQIAKMALSIASLDLLIVK”: the “soluble on expression in E. coli” value was “not soluble”.

In the case of “MGSDKIHHHHHHMTARHSDCVHCLMRGQSIFAGLSREEVCELGMDVQDIHVPAGTTIYHEGDPAQYAYTLRQGGIKLVKSLPNGHAQIVRLLHHGDLLGFEGLRTDRHRHSAITLTGTDLCRLELRALDALSQRLPAVREAIFARWQQALQEAEDRIVELGAKKADARLATFLCQWVGAYPQQRAAPFPLTRQDLGEFLGLSTEHVSRIMADLKRHRLLHEHKGQIEIPDPQNLFLYASSDGTRA”, the “soluble on expression in E. coli” value is listed as “not soluble”.

In the case of “MGVEQILKRKTGVIVGEDVHNLFTYAKEHKFAIPAINVTSSSTAVAALEAARDSKSPIILQTSNGGAAYFAGKGISNEGQNASIKGAIAAAHYIRSIAPAYGIPVVLHSDHCAKKLLPWFDGMLEADEAYFKEHGEPLFSSHMLDLSEETDEENISTCVKYFKRMAAMDQWLEMEIGITGGEEDGVNNENADKEDLYTKPEQVYNVYKALHPISPNFSIAAAFGNCHGLYAGDIALRPEILAEHQKYTREQVGCKEEKPLFLVFHGGSGSTVQEFHTGIDNGVVKVNLDTDCQYAYLTGIRDYVLNKKDYIMSPVGNPEGPEKPNKKFFDPRVWVREGEKTMGAKITKSLETFRTTNTL”, the “soluble on expression in E. coli” value was “soluble”.

With “MKFYTILSILFISFMLSACAVLQKSSPLQENKDFYILDTHTQKKISFEDMILELLKADVILLGEKHDEVKHKISQVMIFNALEGNLSSQNINFDVALEMLASTEQNHLDKAFKNKKTIKANELTNALNWDKVWKWKDYEQFVNVVFYSKSKILGANLSRSEITSIYNGAQPLKGYVSTTNEVKKQLFDIISLSHKLNPEENKELLDKLVEIQQFKDRRMADVLVHHVNKVLLLAGSYHTSKKIGIPLHIQDFKSSKKIVVVNLSYGEIDLKDSDYVLIYKGEE”, the “soluble on expression in E. coli” value is listed as “not soluble”.
